Numbering of substitutions follows the chain as printed. Values belong to the binder of their own block, whether it stands above or below them.
Biological target: T1, soluble CD22-Fc (R&D Systems) (UniProt P20273 20-687)
T1 construct: Bought reagent used to stain CD22 CARs; not shown: Fc part; detected with anti-human IgG Fc-gamma secondary
T1 sequence (looked up): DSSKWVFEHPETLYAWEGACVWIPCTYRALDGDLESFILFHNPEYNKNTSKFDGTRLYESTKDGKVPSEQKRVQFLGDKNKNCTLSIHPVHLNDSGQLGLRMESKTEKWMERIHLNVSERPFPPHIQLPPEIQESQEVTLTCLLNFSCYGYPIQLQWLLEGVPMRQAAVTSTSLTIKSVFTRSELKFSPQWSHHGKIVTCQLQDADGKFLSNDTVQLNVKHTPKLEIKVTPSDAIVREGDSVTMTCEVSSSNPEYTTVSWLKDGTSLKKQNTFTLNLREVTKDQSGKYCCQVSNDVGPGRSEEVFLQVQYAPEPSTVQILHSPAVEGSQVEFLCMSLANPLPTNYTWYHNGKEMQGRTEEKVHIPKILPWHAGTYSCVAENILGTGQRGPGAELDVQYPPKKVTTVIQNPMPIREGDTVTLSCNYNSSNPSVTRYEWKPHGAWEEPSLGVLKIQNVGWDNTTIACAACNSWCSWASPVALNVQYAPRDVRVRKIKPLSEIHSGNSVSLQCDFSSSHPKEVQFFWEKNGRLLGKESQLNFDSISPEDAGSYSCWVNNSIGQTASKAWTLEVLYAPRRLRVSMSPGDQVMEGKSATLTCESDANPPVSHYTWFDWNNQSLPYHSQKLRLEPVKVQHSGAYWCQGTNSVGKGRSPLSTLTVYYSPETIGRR
Assay: flow cytometry, soluble CD22-Fc plus anti-human Fc-PE on CAR-transduced primary T cells (FIG. 4)

- MFI: > 20000
B2: CD22-65 CAR (other)
chain: EVQLQQSGPGLVKPSQTLSLTCAISGDSMLSNSDTWNWIRQSPSRGLEWLGRTYHRSTWYDDYASSVRGRVSINVDTSKNQYSLQLNAVTPEDTGVYYCARVRLQDGNSWSDAFDVWGQGTMVTVSSGGGGSGGGGSGGGGSQSALTQPASASGSPGQSVTISCTGTSSDVGGYNYVSWYQQHPGKAPKLMIYDVSNRPSGVSNRFSGSKSGNTASLTISGLQAEDEADYYCSSYTSSSTLYVFGTGTQLTVLTTTPAPRPPTPAPTIASQPLSLRPEACRPAAGGAVHTRGLDFACDIYIWAPLAGTCGVLLLSLVITLYCKRGRKKLLYIFKQPFMRPVQTTQEEDGCSCRFPEEEEGGCELRVKFSRSADAPAYKQGQNQLYNELNLGRREEYDVLDKRRGRDPEMGGKPRRKNPQEGLYNELQKDKMAEAYSEIGMKGERRRGKGHDGLYQGLSTATKDTYDALHMQALPPR
notes: also called CD22-65_Zmut

- MFI: > 20000
B6: CD22-63 CAR (other)
chain: EVQLQQSGPGLVKPSQTLSLTCAISGDSVLSNSDTWNWIRQSPSRGLEWLGRTYHRSTWYDDYASSVRGRVSINVDTSKNQYSLQLNAVTPEDTGVYYCARDRLQDGNSWSDAFDVWGQGTMVTVSSGGGGSGGGGSGGGGSQSALTQPASVSGSPGQSITISCTGTSSDVGGYNYVSWYQQHPGKAPKLMIYEVSNRPSGVSNRFSGSKSGNTASLTISGLQAEDEADYYCSSYTSSSTLYIFGTGTKVTVL
notes: CAR on primary human T cells; not shown: hinge, transmembrane, 4-1BB and CD3zeta parts of the CAR

- MFI: > 20000
B7: CD22-64 CAR (other)
chain: B6 chain with S19P, D102V, S142P, V152A, I160V, E194D, I243V, K249Q, V250L
notes: as for B6

Second part, the binder before the results:

B1: CD22-58 CAR (other)
chain: EVQLQQSGPGLVNPSQTLSITCAISGDSVSSNSAAWNWIRQSPSRGLEWLGRTFYRSKWYNDYAVSVKGRITISPDTSKNQFSLQLNSVTPEDTAVYYCAGGDYYYGLDVWGQGTTVTVSSGGGGSGGGGSGGGGSQSALTQPASVSGSPGQSITISCTGSSSDVGGYNSVSWYQQHPGKAPKLMIYEVINRPSGVSHRFSGSKSGNTASLTISGLQAEDEADYYCSSYTSSSTYVFGTGTKVTVL
notes: as for B6
- MFI: 5700

B3: CD22-57 CAR (other)
chain: EVQLQQSGPGLVKPSQTLSLTCAISGDSVSNNNAAWNWIRQSPSRGLEWLGRTYHRSTWYNDYVGSVKSRITINPDTSKNQFSLQLNSVTPEDTAVYYCARETDYGDYGAFDIWGQGTTVTVSSGGGGSGGGGSGGGGSQSALTQPASVSGSPGQSITISCTGSRNDIGAYESVSWYQQHPGNAPKLIIHGVNNRPSGVFDRFSVSQSGNTASLTISGLQAEDEADYYCSSHTTTSTLYVFGTGTKVTVL
notes: as for B6
- MFI: > 20000

B4: CD22-53 CAR (other)
chain: EVQLQQSGPGLVKPSQTLSLTCAISGDSVSSNSAAWNWIRQSPSRGLEWLGRTYYRSKWYSDYAVSVKSRITINPDTSKNQFSLQLNSVTPEDTAVYYCARDPYDFWSGYPDAFDIWGQGTMVTVSSGGGGSGGGGSGGGGSQSALTQPASVSGSPGQSITISCTGTSSDVGGYNYVSWYQQHPGKAPKVIISEVNNRPSGVSHRFSGSKSGNTASLTISGLQAEDEADYFCSSYTSGRTLYVFGTGSKVTVLG
notes: Control CD22 CAR; not shown: hinge, transmembrane, 4-1BB and CD3zeta parts of the CAR
- MFI: > 20000

B5: CD22-61 CAR (other)
chain: B6 chain with E1Q, Q6E, G139S, I243V
notes: as for B6
- MFI: > 20000
